According to publication PMC11006869:

Key:
[1] = biological target: ErNaR, NDQ rhodopsin (light-driven sodium pump) from Erythrobacter sp. HL-111 (Erythrobacter sp. HL-111); test: SEC; detergent-solubilized ErNaR, pH 2.3
[2] = biological target: ErNaR, NDQ rhodopsin (light-driven sodium pump) from Erythrobacter sp. HL-111 (Erythrobacter sp. HL-111); test: SEC; detergent-solubilized ErNaR, pH 8.0
[3] = biological target: ErNaR, NDQ rhodopsin (light-driven sodium pump) from Erythrobacter sp. HL-111 (Erythrobacter sp. HL-111); test: cryo-EM structure; single particle; 20 mM Tris pH 8.0, 200 mM NaCl, 0.05% DDM; C5 symmetry; 2.63 Å
[4] = biological target: ErNaR, NDQ rhodopsin (light-driven sodium pump) from Erythrobacter sp. HL-111 (Erythrobacter sp. HL-111); test: cryo-EM structure; single particle; 100 mM sodium acetate pH 4.3, 200 mM NaCl, 0.05% DDM; C5 symmetry; 2.50 Å

stoichiometry N [1]: 5 | stoichiometry N [2]: 5 | stoichiometry N [3]: 5 | stoichiometry N [4]: 5
Substance: ErNaR, NDQ rhodopsin (light-driven sodium pump) from Erythrobacter sp. HL-111 (natural protein)
